According to paper PMC5878720:

Target: T1, IL-11Rα (human (endogenous in RA ST fibroblasts and HUVECs)) (UniProt Q14626)
T1 sequence: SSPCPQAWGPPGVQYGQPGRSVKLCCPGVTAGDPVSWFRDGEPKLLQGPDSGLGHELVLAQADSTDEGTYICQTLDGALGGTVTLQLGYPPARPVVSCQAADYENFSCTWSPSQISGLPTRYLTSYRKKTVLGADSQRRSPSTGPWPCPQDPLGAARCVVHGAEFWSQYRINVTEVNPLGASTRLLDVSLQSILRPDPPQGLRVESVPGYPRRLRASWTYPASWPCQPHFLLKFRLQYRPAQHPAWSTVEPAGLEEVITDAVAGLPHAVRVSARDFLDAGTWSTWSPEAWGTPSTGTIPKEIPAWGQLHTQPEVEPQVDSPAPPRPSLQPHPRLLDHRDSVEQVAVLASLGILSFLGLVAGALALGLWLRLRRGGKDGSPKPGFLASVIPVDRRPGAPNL

- HUVEC transwell migration, 24h, IL-11 1-100 ng/ml, fold over control: 3 to 15 fold
B1: IL-11 (ligand)
chain: PGPPPGPPRVSPDPRAELDSTVLLTRSLLADTRQLAAQLRDKFPADGDHNLDSLPTLAMSAGALGALQLPGVLTRLRADLLSYLRHVQWLRRAGGSSLKTLEPELGTLQARLDRLLRRLQLLMSRLALPQPPPDPPAPPLAPPSSAWGGIRAAHAILGGLHLTLDWAVRGLLLLKTRL
